Results taken from US20180318386A1, “PEPTIDES AND METHODS OF TREATING ENDOMETRIOSIS USING THE SAME” (BIOINCEPT, LLC, priority 2014, published 2018).

How the values were obtained:
Assay in all cases: PIF affinity resin pull-down, CD14+ cell lysate, LC-MS/MS count
[1] = molecular target: 14-3-3 protein theta (human) (UniProt P27348)
[2] = molecular target: 78 kDa glucose-regulated protein (human) (UniProt P11021)
[3] = molecular target: Actin, cytoplasmic 2 (human) (UniProt P63261)
[4] = molecular target: Actinin alpha 1 isoform 3 (human) (UniProt P12814)
[5] = molecular target: Bridging integrator 2 (human) (UniProt Q9UBW5)
Calmodulin (human) = Calmodulin (human) (UniProt P0DP23)
[6] = molecular target: Centrosomal protein of 120 kDa (Fragment) (human) (UniProt Q8N960)
Endoplasmin (human) = Endoplasmin (human) (UniProt P14625)
Filamin-A (human) = Filamin-A (human) (UniProt P21333)
Gelsolin (human) = Gelsolin (human) (UniProt P06396)
[7] = molecular target: Isoform 2 of Ras suppressor protein 1 (human) (UniProt Q15404)
[8] = molecular target: Isoform SV of 14-3-3 protein epsilon (human) (UniProt P62258)
Matrin-3 (human) = Matrin-3 (human) (UniProt A8MXP9)
[9] = molecular target: Myeloid cell nuclear differentiation antigen (human) (UniProt P41218)
Myosin-9 (human) = Myosin-9 (human) (UniProt P35579)
[10] = molecular target: Nuclear autoantigenic sperm protein (human) (UniProt P49321)
Protein S100-A8 (human) = Protein S100-A8 (human) (UniProt P05109)
[11] = molecular target: Protein disulfide-isomerase A4 (human) (UniProt P13667)
Thymosin alpha-1 (human) = Thymosin alpha-1 (human) (UniProt P06454)
[12] = molecular target: Transitional endoplasmic reticulum ATPase (human) (UniProt P55072)
Tropomodulin-3 (human) = Tropomodulin-3 (human) (UniProt Q9NYL9)
[13] = molecular target: Tropomyosin alpha-3 chain (human) (UniProt P06753)
[14] = molecular target: Tropomyosin alpha-4 chain (human) (UniProt P67936)
[15] = molecular target: Tubulin alpha-4A chain (human) (UniProt P68366)

Isoform SV of 14-3-3 protein epsilon (human), sequence (P62258 23-255 limits assumed): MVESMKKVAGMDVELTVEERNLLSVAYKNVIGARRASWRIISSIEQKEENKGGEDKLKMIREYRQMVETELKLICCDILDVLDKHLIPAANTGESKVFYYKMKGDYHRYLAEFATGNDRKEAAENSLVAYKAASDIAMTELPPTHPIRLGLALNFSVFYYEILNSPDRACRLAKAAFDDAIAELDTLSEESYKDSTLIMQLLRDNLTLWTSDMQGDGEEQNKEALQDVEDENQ
Protein disulfide-isomerase A4 (human), sequence (P13667 21-645 limits assumed): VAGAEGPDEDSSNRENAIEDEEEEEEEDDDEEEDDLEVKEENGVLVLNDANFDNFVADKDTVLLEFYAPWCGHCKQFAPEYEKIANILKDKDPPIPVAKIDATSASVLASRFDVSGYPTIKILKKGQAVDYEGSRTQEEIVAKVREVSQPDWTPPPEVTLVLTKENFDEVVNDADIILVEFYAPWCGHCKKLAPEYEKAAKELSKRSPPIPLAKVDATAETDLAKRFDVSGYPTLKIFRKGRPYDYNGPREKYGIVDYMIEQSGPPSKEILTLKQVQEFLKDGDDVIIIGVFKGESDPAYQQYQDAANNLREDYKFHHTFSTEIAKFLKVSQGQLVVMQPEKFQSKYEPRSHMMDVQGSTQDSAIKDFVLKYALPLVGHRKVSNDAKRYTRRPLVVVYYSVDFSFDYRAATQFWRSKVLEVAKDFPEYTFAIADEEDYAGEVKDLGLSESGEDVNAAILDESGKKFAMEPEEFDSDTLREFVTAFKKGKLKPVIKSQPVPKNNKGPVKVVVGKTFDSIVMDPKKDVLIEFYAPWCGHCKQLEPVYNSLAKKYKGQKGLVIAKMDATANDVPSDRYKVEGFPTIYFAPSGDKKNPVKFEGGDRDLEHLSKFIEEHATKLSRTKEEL
Isoform 2 of Ras suppressor protein 1 (human), sequence (Q15404 54-277 limits assumed): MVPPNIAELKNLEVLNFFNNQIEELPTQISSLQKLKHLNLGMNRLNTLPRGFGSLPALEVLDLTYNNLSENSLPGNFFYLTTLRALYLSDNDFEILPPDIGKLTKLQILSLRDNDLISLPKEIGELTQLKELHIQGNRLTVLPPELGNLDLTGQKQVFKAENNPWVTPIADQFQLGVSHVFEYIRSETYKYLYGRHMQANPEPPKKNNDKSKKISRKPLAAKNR
Myosin-9 (human), sequence (P35579 2-1960 limits assumed): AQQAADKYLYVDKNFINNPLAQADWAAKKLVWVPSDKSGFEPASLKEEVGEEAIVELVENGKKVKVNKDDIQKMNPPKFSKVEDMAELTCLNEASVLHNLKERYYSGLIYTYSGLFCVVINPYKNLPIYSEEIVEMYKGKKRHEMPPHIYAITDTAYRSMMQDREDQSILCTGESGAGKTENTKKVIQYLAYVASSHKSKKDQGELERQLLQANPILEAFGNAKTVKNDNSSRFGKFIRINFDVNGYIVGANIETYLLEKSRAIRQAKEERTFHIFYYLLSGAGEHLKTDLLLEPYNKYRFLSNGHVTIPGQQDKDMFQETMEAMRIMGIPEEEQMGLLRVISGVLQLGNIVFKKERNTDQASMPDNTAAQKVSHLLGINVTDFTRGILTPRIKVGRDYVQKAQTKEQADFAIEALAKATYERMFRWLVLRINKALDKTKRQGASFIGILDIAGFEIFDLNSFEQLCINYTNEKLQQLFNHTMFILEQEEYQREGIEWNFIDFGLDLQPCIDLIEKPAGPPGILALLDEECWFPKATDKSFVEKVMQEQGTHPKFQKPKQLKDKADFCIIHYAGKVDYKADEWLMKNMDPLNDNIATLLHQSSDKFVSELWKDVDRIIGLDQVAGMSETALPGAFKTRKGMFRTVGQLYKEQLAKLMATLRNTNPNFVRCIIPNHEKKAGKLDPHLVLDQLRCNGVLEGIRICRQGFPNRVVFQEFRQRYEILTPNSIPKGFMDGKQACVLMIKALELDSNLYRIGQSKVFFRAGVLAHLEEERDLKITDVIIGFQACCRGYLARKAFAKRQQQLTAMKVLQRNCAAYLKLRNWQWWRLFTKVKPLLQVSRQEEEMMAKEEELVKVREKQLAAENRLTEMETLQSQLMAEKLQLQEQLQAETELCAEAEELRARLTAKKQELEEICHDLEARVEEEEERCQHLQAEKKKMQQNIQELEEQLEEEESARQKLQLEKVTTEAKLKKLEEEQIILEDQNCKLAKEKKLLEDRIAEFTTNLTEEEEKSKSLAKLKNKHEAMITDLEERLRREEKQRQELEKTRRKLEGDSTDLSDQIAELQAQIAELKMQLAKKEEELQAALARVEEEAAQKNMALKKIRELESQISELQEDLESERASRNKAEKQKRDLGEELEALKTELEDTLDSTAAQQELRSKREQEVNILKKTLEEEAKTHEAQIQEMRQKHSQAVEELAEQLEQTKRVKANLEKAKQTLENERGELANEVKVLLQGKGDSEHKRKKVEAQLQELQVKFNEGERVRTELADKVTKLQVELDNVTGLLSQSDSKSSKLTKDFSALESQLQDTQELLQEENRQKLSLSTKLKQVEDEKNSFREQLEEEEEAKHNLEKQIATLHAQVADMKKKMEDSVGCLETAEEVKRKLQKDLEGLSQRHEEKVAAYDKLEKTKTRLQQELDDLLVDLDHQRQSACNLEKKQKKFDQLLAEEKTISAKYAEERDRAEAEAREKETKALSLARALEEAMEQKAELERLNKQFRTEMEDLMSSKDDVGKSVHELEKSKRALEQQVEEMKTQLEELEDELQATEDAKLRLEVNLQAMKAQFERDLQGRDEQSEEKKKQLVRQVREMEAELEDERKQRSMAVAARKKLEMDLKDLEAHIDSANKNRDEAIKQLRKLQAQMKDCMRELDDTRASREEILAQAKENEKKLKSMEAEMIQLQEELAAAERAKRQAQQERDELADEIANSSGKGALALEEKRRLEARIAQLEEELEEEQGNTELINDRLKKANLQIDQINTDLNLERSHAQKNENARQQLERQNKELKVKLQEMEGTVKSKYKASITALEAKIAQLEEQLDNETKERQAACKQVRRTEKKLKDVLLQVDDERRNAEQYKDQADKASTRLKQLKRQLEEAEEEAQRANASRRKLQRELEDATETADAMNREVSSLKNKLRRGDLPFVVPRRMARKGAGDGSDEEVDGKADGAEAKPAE
Centrosomal protein of 120 kDa (Fragment) (human), sequence (Q8N960 whole entry, the tested form may be a part): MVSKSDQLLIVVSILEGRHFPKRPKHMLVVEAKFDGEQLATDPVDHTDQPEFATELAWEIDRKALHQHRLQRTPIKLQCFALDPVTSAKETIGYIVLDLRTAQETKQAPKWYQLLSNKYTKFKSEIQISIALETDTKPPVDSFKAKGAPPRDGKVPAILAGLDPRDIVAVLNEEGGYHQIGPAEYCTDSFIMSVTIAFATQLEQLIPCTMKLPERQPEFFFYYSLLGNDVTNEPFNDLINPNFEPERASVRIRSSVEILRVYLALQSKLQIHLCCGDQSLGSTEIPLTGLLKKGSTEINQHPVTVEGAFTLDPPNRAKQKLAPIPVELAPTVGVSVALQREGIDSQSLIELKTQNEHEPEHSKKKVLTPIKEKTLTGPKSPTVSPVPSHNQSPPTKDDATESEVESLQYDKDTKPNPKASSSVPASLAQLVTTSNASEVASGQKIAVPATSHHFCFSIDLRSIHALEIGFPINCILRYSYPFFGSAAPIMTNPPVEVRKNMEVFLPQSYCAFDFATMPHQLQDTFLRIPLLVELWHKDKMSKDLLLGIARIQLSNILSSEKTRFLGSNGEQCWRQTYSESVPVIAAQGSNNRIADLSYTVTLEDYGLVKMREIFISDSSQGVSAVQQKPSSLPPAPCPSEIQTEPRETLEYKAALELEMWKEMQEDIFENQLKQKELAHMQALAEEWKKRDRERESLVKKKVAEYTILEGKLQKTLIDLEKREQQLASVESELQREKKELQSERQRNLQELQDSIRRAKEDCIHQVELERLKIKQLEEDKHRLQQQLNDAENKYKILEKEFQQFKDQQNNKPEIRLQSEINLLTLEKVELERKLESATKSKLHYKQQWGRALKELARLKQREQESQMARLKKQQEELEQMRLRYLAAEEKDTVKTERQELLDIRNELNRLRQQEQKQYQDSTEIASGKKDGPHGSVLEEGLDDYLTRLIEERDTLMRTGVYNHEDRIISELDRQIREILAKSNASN
Tropomyosin alpha-3 chain (human), sequence (P06753 2-285 limits assumed): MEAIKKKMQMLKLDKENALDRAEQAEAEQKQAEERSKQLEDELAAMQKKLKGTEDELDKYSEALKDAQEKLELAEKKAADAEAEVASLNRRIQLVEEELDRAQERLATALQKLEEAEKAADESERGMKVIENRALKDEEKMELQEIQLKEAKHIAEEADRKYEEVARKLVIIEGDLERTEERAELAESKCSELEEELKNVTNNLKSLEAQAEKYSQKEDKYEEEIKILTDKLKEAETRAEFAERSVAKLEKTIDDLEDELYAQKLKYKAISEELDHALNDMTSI
Bridging integrator 2 (human), sequence (Q9UBW5 whole entry): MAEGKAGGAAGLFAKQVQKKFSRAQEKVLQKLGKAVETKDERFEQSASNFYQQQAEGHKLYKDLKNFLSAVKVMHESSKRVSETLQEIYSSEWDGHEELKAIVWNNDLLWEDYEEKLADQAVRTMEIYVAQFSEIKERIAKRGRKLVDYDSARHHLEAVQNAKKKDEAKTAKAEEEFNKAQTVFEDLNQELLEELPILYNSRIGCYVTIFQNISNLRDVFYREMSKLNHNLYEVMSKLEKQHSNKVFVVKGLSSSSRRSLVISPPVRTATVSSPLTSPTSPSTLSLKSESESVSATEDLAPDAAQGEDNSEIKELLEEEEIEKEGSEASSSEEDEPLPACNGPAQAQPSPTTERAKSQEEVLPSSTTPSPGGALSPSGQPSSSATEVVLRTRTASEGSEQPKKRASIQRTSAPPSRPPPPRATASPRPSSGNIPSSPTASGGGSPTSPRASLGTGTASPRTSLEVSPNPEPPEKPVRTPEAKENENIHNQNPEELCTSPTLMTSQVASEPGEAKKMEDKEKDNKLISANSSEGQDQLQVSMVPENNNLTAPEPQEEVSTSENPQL
Thymosin alpha-1 (human), sequence (P06454 other isoform, or with tags, fused parts or gaps limits assumed): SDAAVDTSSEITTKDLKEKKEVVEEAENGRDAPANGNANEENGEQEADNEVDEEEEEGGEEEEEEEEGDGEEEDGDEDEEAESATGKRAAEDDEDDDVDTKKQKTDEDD

Question: “PIF15 affinity resin (Cys-C6 spacer-PIF15 conjugated to agarose) (peptide)” was tested. Which Ave [1] did it give?
Answer: The Ave was 1.

Question: What about the Inject 1 [1] of the same substance?
Answer: Its Inject 1 is 1.

Question: What about the Inject 2 [1] of the same substance?
Answer: Its Inject 2 is 1.

Question: What about the Inject 3 [1] of the same substance?
Answer: Its Inject 3 is 2.

Question: What about the Ave [2] of the same substance?
Answer: The Ave was 4.

Question: What about the Inject 1 [2] of the same substance?
Answer: The Inject 1 was 6.

Question: What about the Inject 2 [2] of the same substance?
Answer: The Inject 2 was 3.

Question: What about the Inject 3 [2] of the same substance?
Answer: Its Inject 3 is 3.

Question: And the Ave [3]?
Answer: The Ave was 7.

Question: What about the Inject 1 [3] of the same substance?
Answer: The Inject 1 was 6.

Question: What about the Inject 2 [3] of the same substance?
Answer: Its Inject 2 is 7.

Question: And the Inject 3 [3]?
Answer: The Inject 3 was 7.

Question: And the Ave [4]?
Answer: Its Ave is 4.

Question: And the Inject 1 [4]?
Answer: Its Inject 1 is 5.

Question: And the Inject 2 [4]?
Answer: The Inject 2 was 4.

Question: And the Inject 3 [4]?
Answer: The Inject 3 was 3.

Question: What about the Ave [5] of the same substance?
Answer: The Ave was 1.

Question: What about the Inject 1 [5] of the same substance?
Answer: The Inject 1 was 1.

Question: And the Inject 2 [5]?
Answer: The Inject 2 was 2.

Question: What about the Inject 3 [5] of the same substance?
Answer: Its Inject 3 is 0.

Question: And the Ave (Calmodulin (human))?
Answer: Its Ave is 4.

Question: What about the Inject 1 (Calmodulin (human)) of the same substance?
Answer: Its Inject 1 is 6.

Question: And the Inject 2 (Calmodulin (human))?
Answer: Its Inject 2 is 4.

Question: And the Inject 3 (Calmodulin (human))?
Answer: The Inject 3 was 3.

Question: And the Ave [6]?
Answer: Its Ave is 1.

Question: What about the Inject 1 [6] of the same substance?
Answer: Its Inject 1 is 2.

Question: What about the Inject 2 [6] of the same substance?
Answer: The Inject 2 was 0.

Question: And the Inject 3 [6]?
Answer: The Inject 3 was 0.

Question: And the Ave (Endoplasmin (human))?
Answer: The Ave was 1.

Question: And the Inject 1 (Endoplasmin (human))?
Answer: Its Inject 1 is 0.

Question: And the Inject 2 (Endoplasmin (human))?
Answer: Its Inject 2 is 2.

Question: And the Inject 3 (Endoplasmin (human))?
Answer: Its Inject 3 is 1.

Question: And the Ave (Filamin-A (human))?
Answer: The Ave was 5.

Question: And the Inject 1 (Filamin-A (human))?
Answer: Its Inject 1 is 5.

Question: And the Inject 2 (Filamin-A (human))?
Answer: Its Inject 2 is 3.

Question: What about the Inject 3 (Filamin-A (human)) of the same substance?
Answer: Its Inject 3 is 7.

Question: And the Ave (Gelsolin (human))?
Answer: The Ave was 2.

Question: And the Inject 1 (Gelsolin (human))?
Answer: The Inject 1 was 3.

Question: What about the Inject 2 (Gelsolin (human)) of the same substance?
Answer: The Inject 2 was 1.

Question: What about the Inject 3 (Gelsolin (human)) of the same substance?
Answer: Its Inject 3 is 1.

Question: What about the Ave [7] of the same substance?
Answer: Its Ave is 1.

Question: What about the Inject 1 [7] of the same substance?
Answer: The Inject 1 was 0.

Question: And the Inject 2 [7]?
Answer: The Inject 2 was 1.

Question: And the Inject 3 [7]?
Answer: The Inject 3 was 2.

Question: And the Ave [8]?
Answer: Its Ave is 3.

Question: What about the Inject 1 [8] of the same substance?
Answer: Its Inject 1 is 4.

Question: And the Inject 2 [8]?
Answer: The Inject 2 was 4.

Question: And the Inject 3 [8]?
Answer: The Inject 3 was 2.

Question: What about the Ave (Matrin-3 (human)) of the same substance?
Answer: Its Ave is 1.

Question: What about the Inject 1 (Matrin-3 (human)) of the same substance?
Answer: The Inject 1 was 1.

Question: What about the Inject 2 (Matrin-3 (human)) of the same substance?
Answer: The Inject 2 was 2.

Question: And the Inject 3 (Matrin-3 (human))?
Answer: The Inject 3 was 1.

Question: And the Ave [9]?
Answer: The Ave was 2.

Question: What about the Inject 1 [9] of the same substance?
Answer: Its Inject 1 is 2.

Question: What about the Inject 2 [9] of the same substance?
Answer: Its Inject 2 is 2.

Question: What about the Inject 3 [9] of the same substance?
Answer: The Inject 3 was 2.

Question: And the Ave (Myosin-9 (human))?
Answer: Its Ave is 10.

Question: And the Inject 1 (Myosin-9 (human))?
Answer: The Inject 1 was 11.

Question: And the Inject 2 (Myosin-9 (human))?
Answer: The Inject 2 was 9.

Question: And the Inject 3 (Myosin-9 (human))?
Answer: Its Inject 3 is 10.

Question: What about the Ave [10] of the same substance?
Answer: The Ave was 1.

Question: What about the Inject 1 [10] of the same substance?
Answer: Its Inject 1 is 2.

Question: What about the Inject 2 [10] of the same substance?
Answer: Its Inject 2 is 0.

Question: And the Inject 3 [10]?
Answer: The Inject 3 was 1.

Question: And the Ave (Protein S100-A8 (human))?
Answer: Its Ave is 2.

Question: And the Inject 1 (Protein S100-A8 (human))?
Answer: Its Inject 1 is 2.

Question: What about the Inject 2 (Protein S100-A8 (human)) of the same substance?
Answer: Its Inject 2 is 1.

Question: What about the Inject 3 (Protein S100-A8 (human)) of the same substance?
Answer: Its Inject 3 is 2.

Question: And the Ave [11]?
Answer: Its Ave is 2.

Question: And the Inject 1 [11]?
Answer: The Inject 1 was 4.

Question: What about the Inject 2 [11] of the same substance?
Answer: The Inject 2 was 1.

Question: What about the Inject 3 [11] of the same substance?
Answer: The Inject 3 was 2.

Question: And the Ave (Thymosin alpha-1 (human))?
Answer: Its Ave is 5.

Question: And the Inject 1 (Thymosin alpha-1 (human))?
Answer: Its Inject 1 is 5.

Question: And the Inject 2 (Thymosin alpha-1 (human))?
Answer: Its Inject 2 is 5.

Question: What about the Inject 3 (Thymosin alpha-1 (human)) of the same substance?
Answer: The Inject 3 was 4.

Question: And the Ave [12]?
Answer: Its Ave is 3.

Question: And the Inject 1 [12]?
Answer: Its Inject 1 is 3.

Question: And the Inject 2 [12]?
Answer: The Inject 2 was 2.

Question: And the Inject 3 [12]?
Answer: Its Inject 3 is 3.

Question: And the Ave (Tropomodulin-3 (human))?
Answer: Its Ave is 1.

Question: And the Inject 1 (Tropomodulin-3 (human))?
Answer: The Inject 1 was 1.

Question: What about the Inject 2 (Tropomodulin-3 (human)) of the same substance?
Answer: Its Inject 2 is 2.

Question: And the Inject 3 (Tropomodulin-3 (human))?
Answer: The Inject 3 was 1.

Question: What about the Ave [13] of the same substance?
Answer: The Ave was 4.

Question: And the Inject 1 [13]?
Answer: Its Inject 1 is 4.

Question: What about the Inject 2 [13] of the same substance?
Answer: Its Inject 2 is 2.

Question: What about the Inject 3 [13] of the same substance?
Answer: The Inject 3 was 5.

Question: What about the Ave [14] of the same substance?
Answer: Its Ave is 8.

Question: What about the Inject 1 [14] of the same substance?
Answer: Its Inject 1 is 8.

Question: What about the Inject 2 [14] of the same substance?
Answer: The Inject 2 was 7.

Question: And the Inject 3 [14]?
Answer: Its Inject 3 is 8.

Question: What about the Ave [15] of the same substance?
Answer: Its Ave is 2.

Question: And the Inject 1 [15]?
Answer: The Inject 1 was 2.

Question: What about the Inject 2 [15] of the same substance?
Answer: The Inject 2 was 3.

Question: What about the Inject 3 [15] of the same substance?
Answer: The Inject 3 was 1.
